The values below come from paper PMC10703879.

As a reminder, the Kd is the free concentration of one partner at which half of the binding sites on the other are occupied at equilibrium, for simple one-to-one binding. One may read the koff as the rate constant with which the complex falls apart. Low values mean a long-lived complex, high ones a short-lived complex.

The target in experiment [1] is BCMAECD-Fc (dimerized, Fc-tagged human BCMA extracellular domain) (human) (UniProt Q02223). Nature of the experiment: SPR; heterogeneous ligand, first site (KD1). The conditions noted are these: VHH.
The target is the same in experiment [2]. The experiment can be described thus: SPR; heterogeneous ligand, first site (kd1). The conditions noted are these: VHH. (In general: SPR reads the build-up and loss of mass on a sensor chip optically.)
Experiment [3] deals with BCMAECD-His (monomeric, His-tagged human BCMA extracellular domain) (human) (UniProt Q02223). The experiment can be described thus: SPR; heterogeneous ligand, first site (kd1). The conditions noted are these: VHH.
For experiment [4], the target named is BCMAECD-Fc (dimerized, Fc-tagged human BCMA extracellular domain) (human) (UniProt Q02223). Nature of the experiment: SPR; heterogeneous ligand, second site (KD2). The conditions noted are these: VHH.
The target of experiment [5] is BCMAECD-His (monomeric, His-tagged human BCMA extracellular domain) (human) (UniProt Q02223). The experiment can be described thus: SPR; heterogeneous ligand, second site (KD2). The conditions noted are these: VHH.
The target of experiment [6] is BCMAECD-Fc (dimerized, Fc-tagged human BCMA extracellular domain) (human) (UniProt Q02223). The experiment can be described thus: SPR; heterogeneous ligand, second site (kd2). The conditions noted are these: VHH.
The target of experiment [7] is BCMAECD-His (monomeric, His-tagged human BCMA extracellular domain) (human) (UniProt Q02223). Nature of the experiment: SPR; heterogeneous ligand, second site (kd2). The conditions noted are these: VHH.
Experiment [8] concerns the target BCMAECD (synthesized extracellular domain of human B-cell maturation antigen, residues 1-54) (human) (UniProt Q02223). Nature of the experiment: AUC; sedimentation velocity; complexes formed by mixing nanobody with excess BCMAECD (molar ratio 1:4, overnight at 4 °C); 1 mg/ml, 45,000 rpm, 20 mM Tris pH 8.0, 100 mM NaCl, 4 °C.
Experiment [9] deals with BCMAECD-Fc (dimerized, Fc-tagged human BCMA extracellular domain) (human) (UniProt Q02223). The experiment can be described thus: SPR; Biacore 8K, 25 °C, 10 mM HEPES pH 7.4, 150 mM NaCl, 0.05% Tween 20; BCMAECD-Fc immobilised by amine coupling on CM5; nanobodies as analytes (five two-fold dilutions); Langmuir model for Nb1 and Nb2, heterogeneous ligand model for NbT.
Experiment [10] concerns the target BCMAECD-His (monomeric, His-tagged human BCMA extracellular domain) (human) (UniProt Q02223). The experiment can be described thus: SPR; Biacore 8K, 25 °C, 10 mM HEPES pH 7.4, 150 mM NaCl, 0.05% Tween 20; BCMAECD-His immobilised by amine coupling on CM5; nanobodies as analytes (five two-fold dilutions); Langmuir model for Nb1 and Nb2, heterogeneous ligand model for NbT.

BCMAECD-His (monomeric, His-tagged human BCMA extracellular domain) (human), sequence (Q02223 1-54): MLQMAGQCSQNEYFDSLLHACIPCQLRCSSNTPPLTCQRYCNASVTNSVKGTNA
BCMAECD-Fc (dimerized, Fc-tagged human BCMA extracellular domain) (human), sequence (Q02223 1-54): as above
BCMAECD (synthesized extracellular domain of human B-cell maturation antigen, residues 1-54) (human), sequence (Q02223 1-54): as above

As for “NbT (cilta-cel nanobody tandem, Nb1 and Nb2 in tandem)”, the Kd in experiment [1] turned out to be 0.00361 nM; in experiment [4] it was 3.54 nM; in [5] it was 4.27 nM. Also, the koff was determined as 3.28e-05 s⁻¹ in experiment [2], 0.000118 s⁻¹ in experiment [3], 0.0133 s⁻¹ in experiment [6] and 0.0191 s⁻¹ in experiment [7].

On to “NbT (cilta-cel nanobody tandem, Nb1 and Nb2 in tandem) (VHH)”, for which, in experiment [8], the stoichiometry N (NbT per BCMAECD (printed 2 to 4)) was 0.5. This substance returned a KD of the higher-affinity site (heterogeneous ligand model) in experiment [9] of 0.0036 nM. For the same substance, the KD of the stronger site (heterogeneous ligand model) in experiment [10] was found to be 0.011 nM.
